Laboratory results published in US5922685.

Experiments:
CD4 (mouse) = CD4 (mouse) (UniProt P06332)

Substance	depletion of T cell subset in mice (CD8 (mouse)) [%]	depletion of T cell subset in mice (CD4 (mouse)) [%]
anti-CD8 mAb (clone 2.43) (antibody)	> 90	–
anti-CD4 mAb (clone GK1.5) (antibody)	–	> 90
